Data on 19 molecules can be found in patent US20230295310A1 (ABCELLERA BIOLOGICS, published 2023).

The target of the experiment is T1, cynomolgus monkey CD3 expressed on cyno primary T cells (cynomolgus monkey, UniProt Q95LI5 22-198; Q95LI8 22-171; Q95LI7 23-181).
T1 construct: whole, on cells; CD3 complex on purified cynomolgus monkey CD3 pan T cells; also called cyno CD3
Put plainly: flow cytometry, cyno primary T cells. On the procedure: Purified antibodies were confirmed to bind CD3 expressed on cells using the CytoFLEX S or LX flow cytometers (Beckman Coulter). Antibodies were diluted to 25 nM in FACS buffer (PBS+2% FBS) and were incubated with CD3-expressing cells for 30 minutes at 4° C. […] The median fluorescence intensity of the binding signal for each antibody was normalized to the isotype control to obtain a fold over isotype value. An antibody with a fold over isotype (FOI) of ≥10 was considered to be positive for binding.
In general terms: Flow cytometry measures light scatter and fluorescence of single cells or particles in a stream.

T1 sequence (Q95LI5 22-198, chain 1 of 3): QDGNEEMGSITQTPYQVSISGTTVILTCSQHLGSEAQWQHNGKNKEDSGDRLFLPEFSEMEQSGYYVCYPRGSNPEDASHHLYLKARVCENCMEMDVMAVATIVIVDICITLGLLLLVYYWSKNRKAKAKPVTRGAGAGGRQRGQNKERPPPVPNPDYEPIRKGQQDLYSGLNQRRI
T1 sequence (Q95LI8 22-171, chain 2 of 3): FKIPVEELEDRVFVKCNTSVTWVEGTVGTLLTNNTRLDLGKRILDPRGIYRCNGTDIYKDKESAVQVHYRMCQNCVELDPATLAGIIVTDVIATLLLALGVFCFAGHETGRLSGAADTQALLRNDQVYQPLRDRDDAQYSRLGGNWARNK
T1 sequence (Q95LI7 23-181, chain 3 of 3): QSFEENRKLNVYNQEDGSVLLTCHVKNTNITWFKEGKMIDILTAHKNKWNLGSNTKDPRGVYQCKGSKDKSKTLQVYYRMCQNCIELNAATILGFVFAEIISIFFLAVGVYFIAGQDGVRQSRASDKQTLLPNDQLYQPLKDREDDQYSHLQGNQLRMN

B1: mAb 233 (antibody, V domains shown)
VH: QGKLVESGGGVVQPGRSLRLSCVASGFTFSGYGMHWVRQVPNKGLEWVAIIYYDGKNKYYADSVKGRFTISRDNSKNMLYLQMNSLRAEDTAVYYCVRGPGYNWFDPWGQGTLVTVSS
VL: EIVLTQSPDFQSVTPKEKVTITCRASQNIGSSLHWYQQKPDQSPKLLIKLTSQSFSGVPSRFSGSGSGTDFTLTINSLEAEDAATYYCHQSSSLPYTFGQGTKLEIK
notes: VH/VL only
For B1, the binding result is given as “no binding (tested: FOI <10 (FOI >=10 = positive); 25 nM)”.

B2: mAb 236 (antibody, V domains shown)
VH: QVKLVESGGGVVQPGRSLRLSCVASGFTFSGYGMHWVRQAPGKGLEWVAIIYYDGKNKYYADSAKGRFTVSRDNSKNTLYLQLNSLRAEDTAVYYCVRGPGYNWFDSWGQGTLVTVSS
VL: EIVLTQSPDFQSVTPKEKVTITCRASQSIGSNLHWYQQKPDQSPKLLIKYTSQSFSGVPSRFSGSGSGTDFTLTINSLEAEDAATYYCHQSSSLPYTFGQGTKLEIK
notes: VH/VL only
For the molecule B2, the binding result is given as “no binding (tested: FOI <10 (FOI >=10 = positive); 25 nM)”.

B3: mAb 242 (antibody, V domains shown)
VH: QGKLVESGGGVVQPGRSLRLSCVASGFTFSGYGMHWVRQVPNKGLEWVAIIYYDGKNKYYADSVKGRFTISRDNSKNMLYLQMNSLRVEDTAVYYCVRGPGYNWFDPWGQGTLVTVSS
VL: EIVLTQSPDFQSVTPKEKVTITCRASQNIGSSLHWYQQKPDQSPKLLIKLTSQSFSGVPSRFSGSGSGTDFTLTINSLEAEDAATYYCHQSSSLPYTFGQGTKLEIK
notes: VH/VL only
For B3, the binding result is recorded as “no binding (tested: FOI <10 (FOI >=10 = positive); 25 nM)”.

B4: mAb 243 (antibody, V domains shown)
VH: QGKLVESGGGVVQPGRSLRLSCVASGFTFSGYGMHWVRQAPNKGLEWVAIIYYDGKNKYYADSVKGRFTISRDNSKNMLYLQMNSLRVEDTAVYYCVRGPGYNWFDPWGQGTLVTVSS
VL: EIVLTQSPDFQSVTPKEKVTITCRASQNIGSSLHWYQQKPDQSPKLLIKHTSQSFSGVPSRFSGSGSGTAFTLTINSLEAEDAATYYCHQSSSLPYTFGQGTKLEIK
notes: VH/VL only
As to B4, the binding result is on record as “no binding (tested: FOI <10 (FOI >=10 = positive); 25 nM)”.

B5: mAb 235 (antibody, V domains shown)
VH: QGKLVESGGGVVQPGRSLRLSCVASGFTFSGYGMHWVRQAPNKGLEWVAIIYYDGKNKYYADSVKGRFTVSRDNSKNTLYLQLNNLRAEDTAVYYCVRGPGYNWFDPWGQGTLVTVSS
VL: EIVLTQSPDFQSVTPKEKVTITCRASQNIGSSLHWYQQKPDQSPKLFIKHASQSFSGVPSRFSGSGSGTDFTLTINSLEAEDAATYYCHQSSSLPYTFGQGTKLEIK
notes: VH/VL only
With B5, the binding result is reported as “no binding (tested: FOI <10 (FOI >=10 = positive); 25 nM)”.

B6: mAb 265 (antibody, V domains shown)
VH: EVQLLESGGGLVQPGGSLRLSCAASGFTFRSSSMTWVRQAPGKGLEWVSGIRGSGGRTYDAESVKGRFTISRDNSKNTLYLQMNSLRAEDTAEYFCAKLYDYYNDYMDVWGKGTTVTVSS
VL: SYELTQPLSVSVALGQTARITCGGNNIGSKNVHWYQQKPGQAPVLVIYRDSNRPSGIPERFSGSNSGNTATLTISRAQAGDEADYYCQVWDSSTAVFGGGTQLTAL
notes: VH/VL only
With B6, the binding result is “no binding (tested: FOI <10 (FOI >=10 = positive); 25 nM)”.

B7: mAb 211 (antibody, V domains shown)
VH: QVQLVESGGGVVQPGRSLRLSCAASGFTFSGYGMHWVRQAPGKGLEWVAIIYYNGKREYYADSVKGRFTISRDNSKNTLYLQMNSLRAEDTAVYYCTRGEGYNWFDPWGQGTLVTVSS
VL: EIVMTQSPATLSVSPGERATLSCRASQSVSSNLAWYQQKPGQAPRLLIYGASTRATGIPARFSGSGSGTEFTLTISSLQSEDFAVYYCKHYNNWPLTFGGGTKVEIK
notes: VH/VL only
On to B7, for which the binding result is recorded as “no binding (tested: FOI <10 (FOI >=10 = positive); 25 nM)”.

B8: mAb 244 (antibody, V domains shown)
VH: QEQLVESGGGVVQPGRSLRLSCAASGFTFRSYGMHWVRQAPGKGLEWVAIIWYDGKNKYYADSVKGRFTISRDNSKNTLYLQMNSLRVEDTAVYYCARGLGYNWFDPWGQGTLVTVTS
VL: EIVLTQSPDFQSVTPKEKVTITCRASQSIGSSLHWYQQKPDQSPKLLIKYASQTFSGVPSRFSGSGSGTDFTLTINSLEVEDAATYYCHQSSSLPNTFGQGTKLEIK
notes: VH/VL only
Regarding B8, the binding result was “no binding (tested: FOI <10 (FOI >=10 = positive); 25 nM)”.

B9: mAb 232 (antibody, V domains shown)
VH: QEQLVESGGGVVQPGRSLRLSCAASGFTFSSYGMHWVRQAPGKGLEWVAIIWYNGRKKDYADSVKGRFTISRDNSKNTLYLQMNSLRAEDTAVYYCARGLGYNWFDPWGQGTLVTVSS
VL: EIVLTQSPDFQSVTPMEKVTIACRASQSIGSSLHWYQQKPDQSPKLLIKYASQSFSGVPSRFSGSGSGTDFTLTINSLEAEDAATYYCHQSSSLPYTFGQGTKLEIK
notes: VH/VL only
As to B9, the binding result is listed as “no binding (tested: FOI <10 (FOI >=10 = positive); 25 nM)”.

B10: mAb 227 (antibody, V domains shown)
VH: QEQLVESGGGVVQPGRSLRLSCAASGFIFSSYGMHWVRQAPGKGLEWVAIIWYNGKKRDYADSVKGRFTISRDNSKNTLYLQMNSLRAEDTAVYYCARGLGYNWFDPWGQGTLVTVSS
VL: EIVLTQSPDFQSVTPKEKVTITCRASQSIGSSLHWYQQKPDQSPKLLIKYASQSFSGVPSRFSGSGSGTDFTLTINSLEAEDAATYYCHQSSSLPYTFGQGTKLEIK
notes: VH/VL only
Regarding B10, the binding result is given as “no binding (tested: FOI <10 (FOI >=10 = positive); 25 nM)”.

B11: mAb 234 (antibody, V domains shown)
VH: QEQLVESGGGVVQPGRSLRLSCAASGFIFSSYGMHWVRQAPGKGLEWVAIIWYNGKKRDYADSVKGRFTISRDNSKNTLYLQMNSLRVEDTAVYYCARGLGYNWFDSWGQGTLVTVSS
VL: EIVLTQSPDFQSVTPKEKVTITCRASQSIGSSLHWYQQKPDQSPKLLIKYASQSFSGVPSRFSGSGSGTDFTLTINSLEAEDAATYYCHQSSSLPYTFGQGTKLEIK
notes: VH/VL only
Turning to B11, the binding result is reported as “no binding (tested: FOI <10 (FOI >=10 = positive); 25 nM)”.

B12: mAb 246 (antibody, V domains shown)
VH: QEQLVESGGGVVQPGRSLRLSCAASGFTFRSYGMHWVRQAPGKGLEWVAIIWYDGKNKYYADSVKGRFTISRDNSKNTLYLQMNSLRAEDTAVYYCARGLGYNWFDPWGQGTLVTVSS
VL: EIVLTQSPDFQSVTPKEKVTITCRASQSIGSSLHWYQQKPDQSPKLLIKYGSQSFSGVPSRFSGSGSGTDFTLTINSLEAEDAATYYCHQSSSLPYTFGQGTKLEIK
notes: VH/VL only
Take B12: the binding result is recorded as “no binding (tested: FOI <10 (FOI >=10 = positive); 25 nM)”.

B13: mAb 231 (antibody, V domains shown)
VH: QEQLVESGGGVVQPGRSLRLSCAASGFTFSSYGMHWVRQAPGKGLEWVAIIYYNGKKKDYADSVKGRFTISRDNSKNTLYLQMNSLRAEDTAVYYCVRGLGYNWFDPWGQGTLVTVSS
VL: EIVLTQSPDFQSVTPKEKVTITCRASQSIGSSLHWYQQKPDQSPKLLIKYASQSFSGVPSRFSGSGSGTDFTLTINSLEAEDAATYYCHQSSNLPYTFGQGTKLEIK
notes: VH/VL only
Consider B13, for which the binding result was “no binding (tested: FOI <10 (FOI >=10 = positive); 25 nM)”.

B14: mAb 247 (antibody, V domains shown)
VH: QEQLVESGGGVVQPGRSLRLSCAASGFIFSSYGMHWVRQAPGKGLEWVAIIWYNGKKRDYADSVKGRFTISRDNSKNTLYLQMNSLRAEDTAVYYCARGLGYNWFDPWGQGTLVTVSS
VL: EIVLTQSPDFQSVTPKDKVTITCRASQSIGSSLHWYQQKPDQSPKLLIKYASQSFSGVPSRFSGSGSGTDFTLTINSLEAEDAATYYCHQSSTLPYTFGQGTKLEIK
notes: VH/VL only
With B14, the binding result is listed as “no binding (tested: FOI <10 (FOI >=10 = positive); 25 nM)”.

B15: mAb 239 (antibody, V domains shown)
VH: QEKLVESGGGVVQPGRSLRLSCVASGFTFSGFGMHWVRQAPGKGLEWVAIIYYDGKNKYYADSVKGRFTISRDNSKNTLYLQMNSLRAEDTAVYYCVRGPGYNWFDPWGQGTLVTVSS
VL: EIVLTQSPDFQSVTPKEKVTITCRASQSIGSSLHWYQQKPDQSPKLLIKYASQSFSGVPSRFSGSGSGTDFTLTINSLEAEDAATYYCHQSSSLPYTFGQGTKLEIK
notes: VH/VL only
In the case of B15, the binding result was “no binding (tested: FOI <10 (FOI >=10 = positive); 25 nM)”.

B16: mAb 249 (antibody, V domains shown)
VH: QEQLVESGGGVVQPGRSLRLSCAASGFTFRSYGMHWVRQAPGKGLEWVAIIWYDGKNKYYADSVKGRFTISRDNSKNTLYLQMNSLRAEDTAVYYCARGLGYNWFDPWGQGTLVTVSS
VL: EIVLTQSPDFQSVTPKEKVTITCRASQSIGSSLHWYQQKPDQSPKLLIKYASQSFSGVPSRFSGSGSGTDFTLTINSLEAEDAATYYCHQSSSLPYTFGQGTKLEIK
notes: VH/VL only
As for B16, the binding result is “no binding (tested: FOI <10 (FOI >=10 = positive); 25 nM)”.

B17: mAb 208 (antibody, V domains shown)
VH: QEQLVESGGGVVQPGRSLRLSCAASGFTFSSYGMHWVRQAPGKGLEWVAIIWYNGKKKDYADSVKGRFTISRDNSKSTLYLQMNSLRAEDTAVYYCARGLGYNWFDPWGQGTLVTVSS
VL: EIVLTQSPDFQSVTPMEKVTIACRASQNIGSSLHWYQQKPDQSPKLLIKYASQSFSGVPSRFSGSGSGTDFTLTINSLEAEDAATYYCHQSSSFPNTFGQGTKLEIK
notes: VH/VL only
For the molecule B17, the binding result was “no binding (tested: FOI <10 (FOI >=10 = positive); 25 nM)”.

B18: mAb 241 (antibody, V domains shown)
VH: QEQLVESGGGVVQPGRSLRLSCAASGFIFSSYGMHWVRQAPGKGLEWVAIIWYNGKKRDYADSVKGRFTISRDNSKNTLYLQMNSLRAEDTAVYYCARGLGYNWFDPWGQGTLVTVSS
VL: AIVLTQSPDFQSVTPKEKVTITCRASQNIGSSLHWYQQKPDQSPKLLIKYASQSFSGVPSRFSGSGSGTDFTLTINSLEAEDAATYYCHQSGSLPYTFGQGTKLEIK
notes: VH/VL only
Take B18: the binding result was “no binding (tested: FOI <10 (FOI >=10 = positive); 25 nM)”.

B19: mAb 223 (antibody, V domains shown)
VH: QVQLVESGGGVVQPGRSLRLSCAASGFTFSGYGMHWVRQAPGKGLEWVAIIYYNGNNRKYADSVKGRFTISRDNSKNMVSLQMNSLRVEDTAIYYCTRGDGYNWFVTWGQGTLVTVSS
VL: EIVMTQSPATLSVSPGEGATLSCRASQSVSSNLAWYHQKPGQAPRLLIYGASTRATGIPVRFSGSGSGTEFTLTISSLQSDDFAVYFCQQYNNWPLTFGGGTKVEIK
notes: VH/VL only
For B19, the binding result is “no binding (tested: FOI <10 (FOI >=10 = positive); 25 nM)”.
